Target: T1, mutant murine LIGHT (a.a. 79-82, EKLI, deleted), expressed on the cell surface (murine, UniProt Q9QYH9 1-239)
T1 construct: The deletion of a.a; 79-82 is written as two ranges of the natural protein; also called mutant LIGHT; LIGHT^m
T1 sequence: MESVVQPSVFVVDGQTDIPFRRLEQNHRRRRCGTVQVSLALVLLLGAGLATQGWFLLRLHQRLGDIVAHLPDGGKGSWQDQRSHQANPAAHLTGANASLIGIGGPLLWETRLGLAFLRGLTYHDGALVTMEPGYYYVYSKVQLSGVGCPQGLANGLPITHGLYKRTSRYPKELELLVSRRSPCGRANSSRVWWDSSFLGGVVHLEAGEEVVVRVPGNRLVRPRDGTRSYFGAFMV
Assay: flow cytometry and fluorescence microscopy, 293 cells expressing mutant murine LIGHT, stained with murine LTbR-Ig and a labelled anti-Ig
Description: 293 cells, a human kidney cell line, are commonly and easily used for transient expression of gene at relative high level of gene. 293 cells were seeded in 6 well plate and transfected with 2 μg DNA of pAdCMVmLIGHT (wild type murine LIGHT), pAdCMVmmLIGHT (mutant murine LIGHT) or pAdCMVcommLIGHT (codon optimized mutant murine LIGHT by GNENART, Berlin, Germany). Codon modification is to optimize gene codon to allow higher expression of protein without changing protein sequences. Transfection was performed using Lipofectmin 2000 reagent. 48 hours after transfection, cells were detached and incubated with recombinant mLTbR-huFc protein (10 μg/ml) followed by staining with PE conjugated Donkey anti-human IgG antisera. Cells were washed and analyzed by flowcytometry (BD FACSArray Bioanalyzer). Transfection were carried out in triplicates and only one representative result is shown. […] Cells were also examined visually by fluorescent microscopy. Representative results are shown in lower panel. (see FIG. 18). High expression of LIGHT is required to have stronger response. However, protease digestion of LIGHT often reduces its stability on cell surface.

B1: recombinant mLTbR-huFc protein (Fc fusion, mouse, UniProt P50284 31-223, looked up)
chain: QLVPPYRIENQTCWDQDKEYYEPMHDVCCSRCPPGEFVFAVCSRSQDTVCKTCPHNSYNEHWNHLSTCQLCRPCDIVLGFEEVAPCTSDRKAECRCQPGMSCVYLDNECVHCEEERLVLCQPGTEAEVTDEIMDTDVNCVPCKPGHFQNTSSPRARCQPHTRCEIQGLVEAAPGTSYSDTICKNPPEPGAMLL
notes: also called mouse LTbR-Ig; murine LTbR-Ig; not shown: human Fc
binding result: binds

Reference: patent publication US20090092640A1 (UNIVERSITY OF CHICAGO, published 2009)
